Patent publication US20190183138A1, “MILK COAGULANT AND METHOD FOR PRODUCING CHEESE” (CHINA AGRICULTURAL UNIVERSITY, priority 2017, published 2019)

Tested on: 12% skim milk
Assay: Milk clotting activity (MCA) assay, curd formation time
Type: biochemical
Conditions: 12% skim milk in 10 mM CaCl2, pH 6.5, 37° C.; FIG. 5
Method: The MCA of the C. otophyllum proteases was determined using a modified method of He et al. (2011). One milliliter of substrate (12% skim milk in 10 mM CaCl2, pH 6.5) was incubated under 37° C. for 5 min, then 0.1 mL of the protease extracted solution was added. The time needed for curd formation was recorded and the MCA was expressed in Soxhlet units (SU). One SU of MCA was defined as the amount of the protease extracted solution required to clot 1 mL of substrate within 40 min at 37° C.
where V stands for the volume of the substrate (mL); v stands for the volume of the protease extract; and t stands for the milk-clotting time (s).
The C. otophyllum proteases were extracted as described by Huang et al. (2011) with some modifications. The C. otophyllum leaves were cut into pieces, mixed with a buffer at different solid-liquid ratios (i.e. ratio of mass to volume) for extraction, and then left for 2 h under 4° C., thus obtaining an extracted solution. After successive filtration through 4 layers of cheesecloth and a 0.22-μm membrane, the filtrate was concentrated by ultrafiltration with a 10-kDa molecular weight cut-off membrane at 8000 × g for 40 minutes at 4° C., with the retentate obtained as the concentrated solution of C. otophyllum proteases, which was assayed for protein concentration following the method of Bradford (1976) and curd formation time for 12% (w/v) skim milk.

B1: papain (protein, UniProt P00784 134-345, looked up)
Papain: IPEYVDWRQKGAVTPVKNQGSCGSCWAFSAVVTIEGIIKIRTGNLNEYSEQELLDCDRRSYGCNGGYPWSALQLVAQYGIHYRNTYPYEGVQRYCRSREKGPYAAKTDGVRQVQPYNEGALLYSIANQPVSVVLEAAGKDFQLYRGGIFVGPCGNKVDHAVAAVGYGPNYILIKNSWGTGWGENGYIRIKRGTGNSYGVCGLYTSSFYPVKN
notes: cysteine protease from Sigma-Aldrich used as comparison
  MCA (milk-clotting activity): 100.2 SU/mg
